Here are results for 3 substances from paper PMC7076939.

The test system of one data set is MeCP2 (human). Nature of the data set: fluorescence anisotropy. The settings on record: 24 nM DNA, text gives error 4.4, 5-methylcytosine at one CpG, Anisotropy: 20 mM HEPES, 50 mM NaCl, 3 mM MgCl2, 3 mM EDTA, pH 7.5, 24 nM DNA, temperature not given, AFM: 20 mM HEPES, 10 mM Mg(OAc)2, 100 mM NaCl.
The test system of data set [1] is ATTO-MBD2 (MBD2FLsc labeled with ATTO 565) (human). Nature of the data set: fluorescence anisotropy. Particulars: 24 nM DNA, text rounds to 25±5, 5-methylcytosine at one CpG, Anisotropy: 20 mM HEPES, 50 mM NaCl, 3 mM MgCl2, 3 mM EDTA, pH 7.5, 24 nM DNA, temperature not given, AFM: 20 mM HEPES, 10 mM Mg(OAc)2, 100 mM NaCl.
Data set [2] has as its system MBD2FLsc (single-chain MBD2 with scMBD2-GATAD2A), unlabeled (human). Briefly: fluorescence anisotropy. Particulars: 24 nM DNA, text rounds to 12±4, 5-methylcytosine at one CpG, Anisotropy: 20 mM HEPES, 50 mM NaCl, 3 mM MgCl2, 3 mM EDTA, pH 7.5, 24 nM DNA, temperature not given, AFM: 20 mM HEPES, 10 mM Mg(OAc)2, 100 mM NaCl.
The test system of data set [3] is ATTO-MBD2 (MBD2FLsc labeled with ATTO 565) (human). Nature of the data set: nanochannel single-molecule fluorescence. Particulars: Anisotropy: 20 mM HEPES, 50 mM NaCl, 3 mM MgCl2, 3 mM EDTA, pH 7.5, 24 nM DNA, temperature not given, AFM: 20 mM HEPES, 10 mM Mg(OAc)2, 100 mM NaCl.

As for “FAM-labeled dsDNA with one methylated CpG”, the Kd was 0.0075 µM in the data set with MeCP2 (human), 0.0245 µM in data set [1] and 0.0119 µM in data set [2].
methylated lambda DNA came in with a binding signal (fold bound vs unmethylated) in data set [3] (CpG 5-methylcytosine) of 10.
In turn, unmethylated lambda DNA returned a binding signal (fraction of methylated) in data set [3] of 0.1.
